Consider 2 substances from US12366576B2, “Compositions, assays, and methods for direct modulation of fatty acid metabolism” (Dana-Farber Cancer Institute, Inc., priority 2016, dated 2025).

Bridge positions count the residues as written; N and C are the ends. Square brackets hold non-standard residues; d marks the D form. Ends that are not written are not given here. * marks the point of attachment. Biotin = O=C1N[C@H]2[C@H](CS[C@H]2CCCCC(=O)*)N1; S5 = C=CCCC[C@](C)(N)C(=O)O

Assay [1] deals with T1, VLCAD (Homo sapiens, UniProt P49748).
T1 construct: 10x His (N); made in house; host or cells: E. coli BL21(DE3), pET19b
T1 sequence (P49748 40-655): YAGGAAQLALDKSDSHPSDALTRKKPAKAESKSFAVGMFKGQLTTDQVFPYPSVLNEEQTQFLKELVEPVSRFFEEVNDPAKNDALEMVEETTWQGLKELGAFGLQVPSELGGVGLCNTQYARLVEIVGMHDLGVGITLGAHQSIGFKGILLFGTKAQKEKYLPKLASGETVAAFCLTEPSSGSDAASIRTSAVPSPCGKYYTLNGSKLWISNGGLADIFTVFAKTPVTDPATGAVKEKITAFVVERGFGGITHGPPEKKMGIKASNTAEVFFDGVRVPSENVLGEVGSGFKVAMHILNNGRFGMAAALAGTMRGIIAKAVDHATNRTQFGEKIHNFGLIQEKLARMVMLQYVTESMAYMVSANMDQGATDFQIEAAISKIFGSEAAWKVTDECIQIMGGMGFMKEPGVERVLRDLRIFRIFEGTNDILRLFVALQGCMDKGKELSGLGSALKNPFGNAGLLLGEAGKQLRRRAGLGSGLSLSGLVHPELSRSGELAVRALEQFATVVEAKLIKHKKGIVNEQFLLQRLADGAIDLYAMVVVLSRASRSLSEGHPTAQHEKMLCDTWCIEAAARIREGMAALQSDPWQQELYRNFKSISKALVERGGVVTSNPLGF
Briefly: Biotinylated SAHB pulldown of recombinant protein. The format is binding. The settings on record: 5 nmol SAHB with 10 pmol rVLCAD. An excerpt:
To validate the MS result, the pulldowns were repeated and eluates run on a gel for anti-VLCAD Western blot analysis. […] All peptides faithfully recapitulated native BH3-binding propensities for endogenous MCL-1 protein (FIG. 8). The eluates were then probed for the other members of the acyl-CoA dehydrogenase family that manifest shorter fatty acid substrate specificities. MCL-1 SAHBD was able to pull down VLCAD, but not MCAD or SCAD (FIG. 9). Because the traditional MCL-1 staple location differs from that of the BIM, BID, and BAD SAHBs, it was important to confirm that the observed VLCAD binding specificity was due to BH3 sequence selectivity, not staple position. A BIM SAHB with the traditional MCL-1 staple (BIM SAHBF), and a MCL-1 stapled peptide with the traditional BIM staple (MCL-1 SAHBA), were generated. […]
Wild-type MEFs were trypsinized, washed once with cold PBS, and lysed on ice with NP-40 lysis buffer (50 mM Tris, pH 7.4, 150 mM NaCl, 0.5% (v/v) NP-40, complete protease inhibitor pellet (Roche)) using 1 ml of lysis buffer for every 10 million cells lysed. Cellular debris was pelleted at 14,000 g for 10 min at 4° C., and the supernatant was quantified using the BCA Protein Assay Kit (Thermo Fisher Scientific). […]

Another assay relates to endogenous MCL-1. Briefly: Biotinylated SAHB pulldown from MEF lysates, anti-MCL-1 Western analysis. The format is binding, mouse. To be noted: wild-type MEF lysates, 15 nmol biotinylated SAHB. As for the experimental part:
An exploratory proteomics analysis was conducted to identify proteins that interact with the MCL-1 BH3 domain helix. An extensive library of MCL-1 stapled BH3 peptides (FIG. 2) was generated to both identify novel protein interactors by mass spectrometry and then deploy the stapled peptide constructs as novel probes to dissect and pharmacologically modulate the identified protein interactors and associated signaling pathways. As an example, an N-terminally biotinylated stapled peptide designed based on the sequence of MCL-1's BH3 domain (Btn-MCL-1 SAHBD), or vehicle, was incubated with wild-type mouse embryonic fibroblast (MEF) lysates, followed by high stringency streptavidin capture. To validate the proteomics workflow and ensure that Btn-MCL-1 SAHBD could, in fact, engage protein interactors in a lysate, eluates were first run on a gel for anti-MCL-1 Western analysis. […] For mass spectrometry (MS) analysis, eluates were run on a reducing/denaturing gel followed by Coomassie staining (FIG. 4) and in-gel digestion was performed before injection on the instrument.
The binding determinants for the MCL-1 BH3/VLCAD interaction were investigated by generating a series of biotinylated MCL-1 SAHBD alanine point mutants (FIG. 18A) and performing streptavidin pull-downs from MEF lysates, followed by VLCAD and MCL-1 western analysis of the resulting eluates. […] Native alanines and residues not mutated are colored white.
Wild-type MEFs were trypsinized, washed once with cold PBS, and lysed on ice with NP-40 lysis buffer (50 mM Tris, pH 7.4, 150 mM NaCl, 0.5% (v/v) NP-40, complete protease inhibitor pellet (Roche)) using 1 ml of lysis buffer for every 10 million cells lysed. Cellular debris was pelleted at 14,000 g for 10 min at 4° C., and the supernatant was quantified using the BCA Protein Assay Kit (Thermo Fisher Scientific). 2 mg of lysate per pulldown were then exposed to 50 μL of pre-equilibrated High Capacity Streptavidin Agarose beads (Thermo Fisher Scientific). […] The beads were then pelleted and washed with NP-40 lysis buffer three times before eluting the protein sample from the beads by heating at 70° C. for 10 min in SDS loading buffer. Samples were then subjected to electrophoresis and either Western analysis or Coomassie stain (SimplyBlue Safe Stain, Thermo Fisher Scientific). […] Coomassie stained gels were then processed for proteomics analysis (see below). Biotinylated SAHB pulldowns of recombinant protein were performed as above incubating 5 nmol of SAHB with 10 pmol of rVLCAD in 500 μL total volume. Densitometry analyses were performed using ImageJ software.

For assay [2], the target named is T1, VLCAD. Description: 19F NMR binding study with fluorinated SAHB. To be noted: fluorinated SAHB 25 μM, VLCAD 0-125 μM. As to the method: (§1) To measure the direct binding interaction, ^19F NMR binding studies were conducted using fluorinated analogs of MCL-1 SAHBD. […] Both SAHBs, however, bind MCL-1ΔNΔC, as illustrated by a chemical shift of the peptide NMR peak in both cases (FIG. 15). […] To perform these experiments, N-terminal Btn-PEG analogs of the peptides were immobilized onto streptavidin probes that were then placed into protein solutions at a variety of concentrations to measure ligand-target association.
VLCAD. Mature human VLCAD lacking its cleavable leader sequence (aa 40-655) (NP_000009.1) was subcloned into the pET19b vector (Novagen) using NdeI and XhoI restriction sites. Correct insertion was confirmed by DNA sequencing. […]
(§2) To determine binding of SAHBs to VLCAD, fluorinated SAHB (25 μM) and VLCAD (0-125 μM) were mixed together in VLCAD FPLC buffer including 10% D2O to a final volume of 500 μL. […] The extent to which VLCAD bound the peptide was determined by measuring the peak width at half height (ν1/2) of the peptide ^19F signal. […] MCL-1ΔNΔC binding to SAHBs causes a change in the ^19F chemical shift of the peptide resulting in two peptide signals (instead of peak broadening), so extent of binding was quantified by measuring the peak height of “unbound” peptide relative to the bound peptide signal.

For assay [3], the target named is T2, MCL-1ΔNΔC (Homo sapiens, UniProt Q07820).
T2 construct: The MCL-1ΔNΔC construct was grown and expressed in E. coli as previously described; made in house; host or cells: E. coli BL21(DE3)
Description: Biolayer interferometry. To be noted: Biotin-PEG peptide immobilized on streptavidin sensors. It counts as binding. A general note: In BLI a coated tip is dipped into the sample, and binding shifts an interference pattern.

In assay [4] the target is T1, VLCAD. Description: Biolayer interferometry. It counts as binding. The settings on record: Biotin-PEG peptide immobilized on streptavidin sensors. As to the method:
as §1
VLCAD. Mature human VLCAD lacking its cleavable leader sequence (aa 40-655) (NP_000009.1) was subcloned into the pET19b vector (Novagen) using NdeI and XhoI restriction sites. Correct insertion was confirmed by DNA sequencing. The 10× His-tagged VLCAD construct was expressed in BL21(DE3) E. coli, and once cells reached an OD of 0.8 after growing at 37° C., they were induced with 0.5 mM […] (IPTG) (Gold Biotechnology I2481C) at 37° C. for 4 hours. Bacterial pellets were resuspended in lysis buffer (500 mM NaCl, 50 mM HEPES, 5% glycerol, pH 7.5, complete protease inhibitor tablet) and lysed by microfluidization (M-110L; Microfluidics). […]
BLI binding measurements were performed using an Octet Red384 System (ForteBio). […] Binding parameters were calculated using the accompanying Octet Software version 9 (ForteBio).

For assay [5], the target named is T2, MCL-1ΔNΔC. Description: 19F NMR binding study with fluorinated SAHB. The settings on record: fluorinated SAHB 25 μM, MCL-1ΔNΔC 0-45 μM. As for the experimental part:
as §1
MCL-1ΔNΔC. The MCL-1ΔNΔC construct was grown and expressed in E. coli as previously described (see, e.g., Stewart, Nat Chem Biol., 6(6):595-601 (2010)). Transformed BL21(DE3) E. coli were grown at 37° C. to an OD of 0.8, after which they were induced with 0.5 mM IPTG. […]
as §2

T2 sequence (Q07820 172-320 limits assumed, stated change not applied): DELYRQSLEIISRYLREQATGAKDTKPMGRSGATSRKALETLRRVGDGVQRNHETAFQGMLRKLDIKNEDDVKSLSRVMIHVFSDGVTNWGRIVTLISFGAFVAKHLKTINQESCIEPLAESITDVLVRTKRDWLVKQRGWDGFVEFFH
endogenous MCL-1, sequence (P97287 152-308 limits assumed): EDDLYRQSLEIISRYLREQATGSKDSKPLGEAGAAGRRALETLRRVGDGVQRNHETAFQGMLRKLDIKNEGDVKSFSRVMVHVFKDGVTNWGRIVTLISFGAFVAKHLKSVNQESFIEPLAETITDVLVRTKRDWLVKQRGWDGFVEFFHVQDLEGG

For “Btn-MCL-1 SAHBD: N-terminally biotinylated stapled peptide designed based on the sequence of MCL-1's BH3 domain (Biotin-RKALETLRRVGDGV[S5]RNH[S5]TAF; staple 15-19)”, the “pull down of recombinant VLCAD” value with VLCAD [1] was “pulled down recombinant VLCAD”. Moreover, the “pull down of endogenous MCL-1 from cellular lysates” value in the assay with endogenous MCL-1 is listed as “readily identified in the eluates”.

For the substance “MCL-1 SAHBB: MCL-1 SAHB containing a different staple position (RKAL[S5]TLR[S5]VGDGVQRNHETAF; staple 5-9)”, in the assay with VLCAD [2], the “19F NMR peptide peak broadening on VLCAD titration” value is on record as “little to no peak broadening”. The “biolayer interferometry association with MCL-1” value with MCL-1ΔNΔC [3] is given as “bind to MCL-1”. The “biolayer interferometry association with VLCAD” value with VLCAD [4] is “no detectable binding interaction”. The “19F NMR binding to MCL-1ΔNΔC (chemical shift of the peptide peak)” value with MCL-1ΔNΔC [5] was “binds directly”.
